Consider one substance from PMC7164637.

This experiment addresses 2019-nCoV spike (S) glycoprotein, prefusion-stabilized ectodomain (residues 1-1208, two stabilizing proline mutations) (2019-nCoV). Kind of experiment: cryo-EM structure.

On to “2019-nCoV spike (S) glycoprotein, prefusion-stabilized ectodomain (residues 1-1208, two stabilizing proline mutations) (domain or fragment)”, for which the stoichiometry N – broadly, a count of units in the complex or per binding partner – amounted to 3.
